Measured values taken from the supplement of paper PMC7125110.
± gives the standard error. This sample holds only a part of the variants without activity.

B1: glmS ribozyme (parent)
chain: AUAAAAGCGCCAGAACUACAGAAAUGUAGUUGACGAGGAGGAGGUUUAUCGAAUUUUCGGCGGAUGCCUCCAAA

Columns and labels:
Details in all cases: with glucosamine-6-phosphate
glucosamine-6-phosphate [1] = variants of: B1; experiment: self-cleavage kobs at 40 uM GlcN6P; higher = faster cleavage; RNA array
Procedure, shortened: (§1)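 Barcoded ribozyme variants were transcribed in situ on sequenced MiSeq chips by E. coli RNA polymerase. At 37 °C, a hybridised Cy3 probe tracked them while glucosamine-6-phosphate (40 μM to 10 mM) in HEPES/KCl/Mg(OAc)2 buffer flowed in and tiles were imaged over ~14 h. Per-tile medians of signals normalised to baseline and to non-cleaving reference variants were fit to one- or two-exponential decays, giving kobs. kcat and KM came from weighted Michaelis–Menten fits across concentrations.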

glucosamine-6-phosphate [2] = variants of: B1; experiment: self-cleavage kobs at 2500 uM GlcN6P; higher = faster cleavage; RNA array
Procedure, shortened: as §1

glucosamine-6-phosphate [3] = variants of: B1; experiment: self-cleavage kobs at 10000 uM GlcN6P; higher = faster cleavage; RNA array
Procedure, shortened: as §1

glucosamine-6-phosphate [4] = variants of: B1; experiment: self-cleavage kobs at 640 uM GlcN6P; higher = faster cleavage; RNA array
Procedure, shortened: as §1

glucosamine-6-phosphate [5] = variants of: B1; experiment: self-cleavage kobs at 160 uM GlcN6P; higher = faster cleavage; RNA array
Procedure, shortened: as §1

| Variant | self-cleavage kobs at 40 uM GlcN6P (glucosamine-6-phosphate [1]) [s⁻¹] | self-cleavage kobs at 2500 uM GlcN6P (glucosamine-6-phosphate [2]) [s⁻¹] | self-cleavage kobs at 10000 uM GlcN6P (glucosamine-6-phosphate [3]) [s⁻¹] | self-cleavage kobs at 640 uM GlcN6P (glucosamine-6-phosphate [4]) [s⁻¹] | self-cleavage kobs at 160 uM GlcN6P (glucosamine-6-phosphate [5]) [s⁻¹] |
| --- | --- | --- | --- | --- | --- |
| AUAAACGCGCCAGAACUACAGAAAUGUAUUUAACGAGGAGGAGGAUUAUCGAAUUUUCGACGGAUGCCUCCAAA [A6C G29U G32A U45A G60A] | < 1e-05 | < 1e-05 |  |  |  |
| AUAAAAGCGCCAGAACUACAGAAAUGUAGUUGACGAGGAGGAGGUGUAUCGAACUUUCGGCGGAUGUCUCCAAA [U46G U54C C67U] | 9.53e-05 ± 1.8e-05 |  | 0.00207 ± 0.00047 |  |  |
| AUAAAAGCGCCAGAACUACAGAAAUGUAUUUGACGAGGGGGAGGUUUAUCGAAUUUUCGGCGGUUGCCUCCAAA [G29U A39G A64U] | < 1e-05 |  |  |  |  |
| AUAAAAGCGCCAGAACUACAGAAAUGUAGUUCACGAGGAGGAGGUUGAUCGAAUGUUCGGCGGACGCCGCCAAA [G32C U47G U55G U65C U69G] | 0.000245 ± 8.5e-05 |  | 0.000357 ± 9.5e-05 |  |  |
| AUAAAAGAGCUAGAACUACAGAAAUGUAGUUGACGAGCAGGAGGUUUAUUGAAUUUUCGGCGGAUGCCUCCAAA [C8A C11U G38C C50U] | < 1e-05 | < 1e-05 |  | < 1e-05 |  |
| AUAAAAGCGCCAGAACUACAGAAAUGUAGUUGACAAGGAGGAGGUUUAUGGAAUUUUCGGGGGAUGCCUCCAAA [G35A C50G C61G] | 0.000147 ± 3e-05 |  | 0.000252 ± 4.7e-05 |  |  |
| AUAAAAGCGCCAGAACUACAGAAAUGUAGUUGACGAGGAGGAGGUUUAUCGAAUUUUCGGCGGAAGCCUUCAAA [U65A C70U] | 0.000142 ± 1.8e-05 | 0.00273 ± 0.0009 | 0.00403 ± 0.0008 | 0.000871 ± 0.00012 | 0.00024 ± 4.6e-05 |
| AUAAAAGCGCCAGAUCUACAGAAAUGUAGUUGACGGGGAGGAGGUUUAUCGAAUUUUCGGCGGAUGCCGCCAAA [A15U A36G U69G] | 3.94e-05 ± 1.7e-05 |  |  |  |  |
| AUAAAAGCGUCAGAACUACAGAAAUGUAGUUGACGAUGAGGAUGUUUAUCGGAUUUUCGUCGGAUGCCUCCAAA [C10U G37U G43U A52G G60U] | < 1e-05 | < 1e-05 | < 1e-05 |  |  |
| AUAAAAGCGCCAGAACUACAGAAAUGUAAUUGACGAGGAGGAGGUUUACCGAAUUUUCGGCGGAUGCCACCAAA [G29A U49C U69A] | < 1e-05 |  | < 1e-05 |  |  |
| AUAAAAAUGCCAGAACUACAGAAAUGUAGUUGACGAGGAGGAGGUUUAUCGAAUUUUCGGCGGAUGCCUCCAAA [G7A C8U] | < 1e-05 |  |  |  |  |
| AUAAAGGCGUCAGAACUACAGAAAUGUAGUUGACGAGGGGGAGGUUUAUCGAAUUUUAGGCGGAUGCCUCCAAA [A6G C10U A39G C58A] | < 1e-05 | < 1e-05 | < 1e-05 |  |  |
| AUAAAACCGCCAGAACUACAGAAAUGUAGUUGACGAGGAGGAGGUUUAUCGAAUUUUCGGCGGUUGCCUCCAAA [G7C A64U] | < 1e-05 | < 1e-05 | < 1e-05 |  |  |
| AUAAAAGCGGCAGAACUACAGAAAUGUAGUUGACGAGGACGAGGUUUAUCGAAUUUUCGGCGGAUGCCUGCAAA [C10G G40C C70G] | < 1e-05 | < 1e-05 | < 1e-05 | < 1e-05 | < 1e-05 |
| AUAAAAUCGCCAGAACUACAGAAAUGUAGUUGACGAGGAGGAGGUUUAUCGAAUUUUCGGCGGACGCCUCCAAA [G7U U65C] | < 1e-05 | < 1e-05 | < 1e-05 | < 1e-05 | < 1e-05 |
